Positions count from the first letter of the chain named.
B1: DQN0344H0976/L0591//DQN0385H1352/L0681-F6 (bispecific antibody)
heavy 1: QVQLVESGGGVVQPGGSLRLSCAASGFTFSSAYWMVWVRQAPGQGLEWMGAVYGGSDTTYYAKWTEGRFTISRDTSKNTLYLQMNSLRAEDTAVYYCAREPLNYYYYGELNLWGQGTLVTVSSASTKGPSVFPLAPSSKSTSGGTAALGCLVKDYFPEPVTVSWNSGALTSGVHTFPAVLKSSGLYSLSSVVTVPSSSLGTQTYICNVNHKPSNTKVDKRVEPKSCDKTHTCPPCPAPELRRGPSVFLFPPKPKDTLMISRTPEVTCVVVDVSHEDPEVKFNWYVDGVEVHNAKTKPREEQYNSTYRVVSVLTVLHQDWLNGKEYKCKVSNKALPAPIEKTISKAKGQPREPQVYTLPPSREEMTKNQVSLTCLVKGFYPSDIAVEWESNGQPENNYKTTPPYLDSDGSFFLYSKLTVDKSRWQEGNVFSCSVLHEALHAHYTREELSLSP
light 1: DIQMTQSPSSLSASVGDRVTITCQATEEIYSGLAWYQQKPGKAPKLLIYYVSTLYEGIPARFSGSGSGTDFTLTISSLEPEDFAVYYCQTYEDVSAVTFGQGTKVEIKRTVAAPSVFIFPPSDEQLKSGTAEVVCLLNNFYPREAKVQWKVDNALQSGNSEESVTEQDSKDSTYSLSSTLTLSKADYEKHKVYACEVTHQGLSSPVTKSFNRGEC
heavy 2: QVQLVESGGGVVQPGRSLRLSCAASGFEFSEWYFMSWVRQAPGKGLEWVASIDTGSGSIDYAEWVEGRFTISRDNSKNTLYLQMNSLRAEDTAVYYCARDIGIDYNFWGPGTLVTVSSASTKGPSVFPLAPSSKSTSGGTAALGCLVEDYFPEPVTVSWNSGALTSGVHTFPAVLESSGLYSLSSVVTVPSSSLGTKTYICNVNHKPSNTKVDKRVEPKSCDKTHTCPPCPAPELRRGPSVFLFPPKPKDTLMISRTPEVTCVVVDVSHEDPEVKFNWYVDGVEVHNAKTKPREEQYNSTYRVVSVLTVLHQDWLNGKEYKCKVSNKALPAPIEKTISKAKGQPREPQVYTLPPSRKEMTKNQVSLTCLVKGFYPSDIAVEWESNGQPENNYKTTPPYLDSDGSFFLYSKLTVDKSRWQQGNVFSCSVLHEALHAHYTRKELSLSP
light 2: DIQMTQSPSSLSASVGDRVTITCQTTQSISSYLNWYQQKPGQPPKLLIYYASTKAEGIPARFSGSGLGTDFTLTISSLEPEDFAVYYCHYGISKVSFGQGTKVEIKRTVAAPSVFIFPPSDEQLKSGTAKVVCLLNNFYPREAKVQWKVDNALQSGNSKESVTEQDSKDSTYSLSSTLTLSKADYEKHKVYACEVTHQGLSSPVTKSFNRGEC
B2: DQN0344H0976/L0591//DQN0385H1527/L0605-F6 (bispecific antibody)
heavy 1: B1 heavy 1
light 1: B1 light 1
heavy 2: B1 heavy 2 with E28T, S30A, E31S
light 2: B1 light 2 with L67S
B3: DQN0344H1013/L0620//DQN0385H1270/L0681-F6 (bispecific antibody)
heavy 1: B1 heavy 1 with G16R, L112V
light 1: B1 light 1 with E28N, Y55A, E56Y
heavy 2: B1 heavy 2 with E28T
light 2: B1 light 2
B4: DQN0344H0976/L0591//DQN0385H1255/L0605-F6.v2 (bispecific antibody, V domains shown)
VH 1: QVQLVESGGGVVQPGGSLRLSCAASGFTFSSAYWMVWVRQAPGQGLEWMGAVYGGSDTTYYAKWTEGRFTISRDTSKNTLYLQMNSLRAEDTAVYYCAREPLNYYYYGELNLWGQGTLVTVSS
VL 1: DIQMTQSPSSLSASVGDRVTITCQATEEIYSGLAWYQQKPGKAPKLLIYYVSTLYEGIPARFSGSGSGTDFTLTISSLEPEDFAVYYCQTYEDVSAVTFGQGTKVEIK
VH 2: QVQLVESGGGVVQPGRSLRLSCAASGFTFSEWYFMSWVRQAPGKGLEWVASIDTGSGSIDYAGWVEERFTISRDNSKNTLYLQMNSLRAEDTAVYYCARDIGIDYNFWGPGTLVTVSS
VL 2: DIQMTQSPSSLSASVGDRVTITCQTTQSISSYLNWYQQKPGQPPKLLIYYASTKAEGIPARFSGSGSGTDFTLTISSLEPEDFAVYYCHYGISKVSFGQGTKVEIK
B5: DQN0344H1013/L0620//DQN0385H1521/L0605-F6.v2 (bispecific antibody, V domains shown)
VH 1: B4 VH 1 with G16R, L112V
VL 1: B4 VL 1 with E28N, Y55A, E56Y
VH 2: B4 VH 2 with S30E, E31S, G63E, E67G
VL 2: B4 VL 2
B6: DQN0344H1013/L0620//DQN0385H1270/L0681-F6.v2 (bispecific antibody, V domains shown)
VH 1: B4 VH 1 with G16R, L112V
VL 1: B4 VL 1 with E28N, Y55A, E56Y
VH 2: B4 VH 2 with G63E, E67G
VL 2: B4 VL 2 with S67L

Biological target: T1, HLA-DQ2.5 on IHW09023 cells loaded with gamma 1 gliadin peptide (human; wheat)
Assay: cell-based or functional assay

Binder | IC50, γ1 gliadin TCR, 250 nM γ1 gliadin [ng/mL]
B1 | 1.11
B2 | 0.59
B3 | 1.11

Biological target: T2, HLA-DQ2.5 on IHW09023 cells loaded with BC hordein peptide (human; barley)
Assay: cell-based or functional assay

Binder | IC50, BC hordein TCR, 250 nM BC hordein [ng/mL]
B1 | 10.8
B2 | 6.54
B3 | 7.54

Biological target: T3, HLA-DQ2.5 on IHW09023 cells loaded with 33 mer gliadin peptide (human; wheat)
Assay: cell-based or functional assay

Binder | IC50, α1a gliadin TCR, 250 nM 33mer gliadin [ng/mL] | IC50, α1b gliadin TCR, 250 nM 33mer gliadin [ng/mL] | IC50, α2 gliadin TCR, 250 nM 33mer gliadin [ng/mL]
B1 | 0.29 | 1.37 | 0.31
B2 | 0.7 | 1.84 | 0.51
B3 | 0.38 | 1.78 | 0.33

Biological target: T4, HLA-DQ2.5 on IHW09023 cells loaded with gamma 4a gliadin peptide (human; wheat)
Assay: cell-based or functional assay

Binder | IC50, γ4a gliadin TCR, 25 µM γ4a gliadin [ng/mL]
B1 | 802
B2 | 1210
B3 | 1160

Biological target: T5, HLA-DQ2.5 on IHW09023 cells loaded with gamma 2 gliadin peptide (human; wheat)
Assay: cell-based or functional assay

Binder | IC50, γ2 gliadin TCR, 250 nM γ2 gliadin [ng/mL]
B1 | 284
B2 | 637
B3 | 322

Biological target: T6, HLA-DQ2.5 on IHW09023 cells loaded with omega1/2 gliadin peptide (human; wheat)
Assay: cell-based or functional assay

Binder | IC50, ω1 gliadin TCR, 25 µM ω1/2 gliadin [ng/mL] | IC50, ω2 gliadin TCR, 250 nM ω1/2 gliadin [ng/mL]
B1 | 1.48 | 0.24
B2 | 3.25 | 0.3
B3 | 2.51 | 0.2

Biological target: T7, HLA-DQ2.5 on IHW09023 cells loaded with gamma 3 gliadin peptide (human; wheat)
Assay: cell-based or functional assay

Binder | IC50, γ3 gliadin TCR, 100 µM γ3 gliadin [ng/mL]
B1 | 2.99
B2 | 2.09
B3 | 2.63

Biological target: T8, HLA-DQ2.5 on IHW09023 cells loaded with gamma 4d gliadin peptide (human; wheat)
Assay: cell-based or functional assay

Binder | IC50, γ4d gliadin TCR, 100 µM γ4d gliadin [ng/mL]
B1 | 9.82
B2 | 11.4
B3 | 13.1

Biological target: T1, HLA-DQ2.5 on IHW09023 cells loaded with …
Assay: cell-based or functional assay
Remark: another data set of the same source

Binder | IC50, γ1 gliadin TCR, 250 nM γ1 gliadin [ng/mL]
B4 | 1.62
B5 | 1.9
B6 | 5.85

Biological target: T2, HLA-DQ2.5 on IHW09023 cells loaded with …
Assay: cell-based or functional assay
Remark: another data set of the same source

Binder | IC50, BC hordein TCR, 250 nM BC hordein [ng/mL]
B4 | 9.52
B5 | 11.4
B6 | 25.2

Biological target: T3, HLA-DQ2.5 on IHW09023 cells loaded with …
Assay: cell-based or functional assay
Remark: another data set of the same source

Binder | IC50, α1a gliadin TCR, 250 nM 33mer gliadin [ng/mL] | IC50, α1b gliadin TCR, 250 nM 33mer gliadin [ng/mL] | IC50, α2 gliadin TCR, 250 nM 33mer gliadin [ng/mL]
B4 | 0.46 | 1.33 | 0.29
B5 | 0.6 | 1.81 | 0.33
B6 | 0.63 | 1.42 | 0.53

Biological target: T4, HLA-DQ2.5 on IHW09023 cells loaded with …
Assay: cell-based or functional assay
Remark: another data set of the same source

Binder | IC50, γ4a gliadin TCR, 25 µM γ4a gliadin [ng/mL]
B4 | 636
B5 | 1250
B6 | 1980

Biological target: T5, HLA-DQ2.5 on IHW09023 cells loaded with …
Assay: cell-based or functional assay
Remark: another data set of the same source

Binder | IC50, γ2 gliadin TCR, 250 nM γ2 gliadin [ng/mL]
B4 | 252
B5 | 785
B6 | 280

Biological target: T6, HLA-DQ2.5 on IHW09023 cells loaded with …
Assay: cell-based or functional assay
Remark: another data set of the same source

Binder | IC50, ω1 gliadin TCR, 25 µM ω1/2 gliadin [ng/mL] | IC50, ω2 gliadin TCR, 250 nM ω1/2 gliadin [ng/mL]
B4 | 1.62 | 0.18
B5 | 1.96 | 0.2
B6 | 3.19 | 0.49

Biological target: T7, HLA-DQ2.5 on IHW09023 cells loaded with …
Assay: cell-based or functional assay
Remark: another data set of the same source

Binder | IC50, γ3 gliadin TCR, 100 µM γ3 gliadin [ng/mL]
B4 | 1.55
B5 | 1.21
B6 | 4.84

Biological target: T8, HLA-DQ2.5 on IHW09023 cells loaded with …
Assay: cell-based or functional assay
Remark: another data set of the same source

Binder | IC50, γ4d gliadin TCR, 100 µM γ4d gliadin [ng/mL]
B4 | 8.69
B5 | 9.23
B6 | 27.8

Biological target: HLA-DQ2.2 on HBBB2.2 cells loaded with 33 mer gliadin peptide (human; wheat)
Assay: cell-based or functional assay

Binder | IC50, HLA-DQ2.2, α1a gliadin TCR, 25 µM 33mer gliadin [ng/mL] | IC50, HLA-DQ2.2, α2 gliadin TCR, 1 µM 33mer gliadin [ng/mL]
B4 | 1.72 | 9.48
B5 | 1.16 | 6.51
B6 | 1.62 | 4.6

— patent publication US20220089743A1 (Chugai, published 2022)
